{
  "source": "IntAct's records for PubMed 29892012",
  "parents": {"B1": {"name": "Coiled-coil alpha-helical rod protein 1 (Homo sapiens), Q8TD31 (parent)", "chain": "MFPPSGSTGLIPPSHFQARPLSTLPRMAPTWLSDIPLVQPPGHQDVSERRLDTQRPQVTMWERDVSSDRQEPGRRGRSWGLEGSQALSQQAEVIVRQLQELRRLEEEVRLLRETSLQQKMRLEAQAMELEALARAEKAGRAEAEGLRAALAGAEVVRKNLEEGSQRELEEVQRLHQEQLSSLTQAHEEALSSLTSKAEGLEKSLSSLETRRAGEAKELAEAQREAELLRKQLSKTQEDLEAQVTLVENLRKYVGEQVPSEVHSQTWELERQKLLETMQHLQEDRDSLHATAELLQVRVQSLTHILALQEEELTRKVQPSDSLEPEFTRKCQSLLNRWREKVFALMVQLKAQELEHSDSVKQLKGQVASLQEKVTSQSQEQAILQRSLQDKAAEVEVERMGAKGLQLELSRAQEARRRWQQQTASAEEQLRLVVNAVSSSQIWLETTMAKVEGAAAQLPSLNNRLSYAVRKVHTIRGLIARKLALAQLRQESCPLPPPVTDVSLELQQLREERNRLDAELQLSARLIQQEVGRAREQGEAERQQLSKVAQQLEQELQQTQESLASLGLQLEVARQGQQESTEEAASLRQELTQQQELYGQALQEKVAEVETRLREQLSDTERRLNEARREHAKAVVSLRQIQRRAAQEKERSQELRRLQEEARKEEGQRLARRLQELERDKNLMLATLQQEGLLSRYKQQRLLTVLPSLLDKKKSVVSSPRPPECSASAPVAAAVPTRESIKGSLSVLLDDLQDLSEAISKEEAVCQGDNLDRCSSSNPQMSS", "partner": "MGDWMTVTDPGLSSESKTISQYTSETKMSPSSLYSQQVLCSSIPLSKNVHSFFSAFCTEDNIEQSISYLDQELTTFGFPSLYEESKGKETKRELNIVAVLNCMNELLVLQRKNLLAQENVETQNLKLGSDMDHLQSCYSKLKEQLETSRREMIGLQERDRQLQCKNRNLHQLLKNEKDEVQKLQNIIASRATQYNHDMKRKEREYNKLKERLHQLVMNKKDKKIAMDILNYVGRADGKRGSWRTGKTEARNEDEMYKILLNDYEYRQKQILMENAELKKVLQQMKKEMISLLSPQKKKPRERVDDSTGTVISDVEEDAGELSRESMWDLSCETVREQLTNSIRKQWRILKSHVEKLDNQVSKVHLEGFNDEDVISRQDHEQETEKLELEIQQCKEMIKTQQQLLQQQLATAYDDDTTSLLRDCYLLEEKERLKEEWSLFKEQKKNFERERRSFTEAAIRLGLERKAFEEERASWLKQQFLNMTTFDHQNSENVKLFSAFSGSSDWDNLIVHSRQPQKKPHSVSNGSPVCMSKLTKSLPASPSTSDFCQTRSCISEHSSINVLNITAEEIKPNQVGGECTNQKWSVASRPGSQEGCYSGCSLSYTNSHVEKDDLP"}, "B2": {"name": "Coiled-coil alpha-helical rod protein 1 (Homo sapiens), Q8TD31 (parent)", "chain": "B1 chain", "partner": "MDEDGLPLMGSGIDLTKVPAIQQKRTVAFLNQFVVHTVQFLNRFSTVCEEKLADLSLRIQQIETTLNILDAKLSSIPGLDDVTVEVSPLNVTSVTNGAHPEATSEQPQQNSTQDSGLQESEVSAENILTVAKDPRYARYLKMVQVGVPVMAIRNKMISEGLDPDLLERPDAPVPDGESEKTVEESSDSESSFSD"}, "B3": {"name": "Coiled-coil alpha-helical rod protein 1 (Homo sapiens), Q8TD31 (parent)", "chain": "B1 chain", "partner": "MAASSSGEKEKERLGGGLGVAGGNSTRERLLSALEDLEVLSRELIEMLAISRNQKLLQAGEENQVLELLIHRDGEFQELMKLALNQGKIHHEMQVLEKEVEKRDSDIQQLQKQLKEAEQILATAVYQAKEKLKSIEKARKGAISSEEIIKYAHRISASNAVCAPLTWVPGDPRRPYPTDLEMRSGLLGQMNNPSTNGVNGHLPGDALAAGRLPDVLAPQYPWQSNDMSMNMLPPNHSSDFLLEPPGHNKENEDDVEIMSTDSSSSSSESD"}, "B4": {"name": "Coiled-coil alpha-helical rod protein 1 (Homo sapiens), Q8TD31 (parent)", "chain": "B1 chain", "partner": "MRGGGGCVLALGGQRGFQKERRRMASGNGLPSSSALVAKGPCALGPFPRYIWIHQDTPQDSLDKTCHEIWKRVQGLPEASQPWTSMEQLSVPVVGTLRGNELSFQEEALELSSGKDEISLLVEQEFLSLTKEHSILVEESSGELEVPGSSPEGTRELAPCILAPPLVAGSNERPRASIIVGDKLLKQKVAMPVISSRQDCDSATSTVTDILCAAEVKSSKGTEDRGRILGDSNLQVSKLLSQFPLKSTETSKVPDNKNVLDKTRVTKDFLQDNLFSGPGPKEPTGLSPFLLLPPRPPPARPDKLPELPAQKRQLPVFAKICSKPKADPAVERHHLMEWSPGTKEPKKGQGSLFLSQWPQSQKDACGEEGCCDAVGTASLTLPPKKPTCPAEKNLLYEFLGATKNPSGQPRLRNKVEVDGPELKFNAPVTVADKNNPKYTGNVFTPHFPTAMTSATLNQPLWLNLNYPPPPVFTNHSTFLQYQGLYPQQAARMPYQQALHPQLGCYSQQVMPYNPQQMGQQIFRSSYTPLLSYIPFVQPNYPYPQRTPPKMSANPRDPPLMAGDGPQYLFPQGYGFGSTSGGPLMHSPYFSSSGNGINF"}, "B5": {"name": "Coiled-coil alpha-helical rod protein 1 (Homo sapiens), Q8TD31 (parent)", "chain": "B1 chain", "partner": "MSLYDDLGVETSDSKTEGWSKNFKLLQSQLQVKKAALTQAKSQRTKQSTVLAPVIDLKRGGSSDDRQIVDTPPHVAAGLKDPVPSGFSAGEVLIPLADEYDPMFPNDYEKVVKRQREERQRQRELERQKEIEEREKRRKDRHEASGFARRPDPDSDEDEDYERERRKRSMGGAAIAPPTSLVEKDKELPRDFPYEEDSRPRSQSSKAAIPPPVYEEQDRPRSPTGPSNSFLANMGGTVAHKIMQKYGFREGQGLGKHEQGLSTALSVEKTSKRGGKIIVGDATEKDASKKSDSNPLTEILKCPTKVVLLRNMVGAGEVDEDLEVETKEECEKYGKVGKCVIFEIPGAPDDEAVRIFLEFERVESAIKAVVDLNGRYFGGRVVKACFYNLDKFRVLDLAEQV"}, "B6": {"name": "Coiled-coil alpha-helical rod protein 1 (Homo sapiens), Q8TD31 (parent)", "chain": "B1 chain", "partner": "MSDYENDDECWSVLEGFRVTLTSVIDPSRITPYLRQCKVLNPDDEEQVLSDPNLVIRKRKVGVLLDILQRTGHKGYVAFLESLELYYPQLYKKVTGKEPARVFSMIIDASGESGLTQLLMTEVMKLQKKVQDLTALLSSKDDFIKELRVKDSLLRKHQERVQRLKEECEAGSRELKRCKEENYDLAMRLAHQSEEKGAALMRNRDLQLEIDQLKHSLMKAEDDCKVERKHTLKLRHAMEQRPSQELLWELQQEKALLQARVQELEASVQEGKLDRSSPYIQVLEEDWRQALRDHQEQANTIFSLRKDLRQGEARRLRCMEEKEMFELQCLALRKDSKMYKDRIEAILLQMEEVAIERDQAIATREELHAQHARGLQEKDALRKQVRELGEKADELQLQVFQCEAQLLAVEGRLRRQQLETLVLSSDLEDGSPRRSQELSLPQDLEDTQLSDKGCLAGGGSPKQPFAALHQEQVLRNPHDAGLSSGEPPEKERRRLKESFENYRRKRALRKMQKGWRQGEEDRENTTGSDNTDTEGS"}},
  "data": [
    {"variants_of": "B1", "conditions": "with adip_human SSX2IP", "values": [
      {"variant": "W337R", "effect of a mutation on the interaction": "disrupting interaction strength"}
    ]},
    {"variants_of": "B2", "conditions": "with wasc3_human WASHC3, Q9Y3C0", "values": [
      {"variant": "W337R", "effect of a mutation on the interaction": "disrupting interaction strength"}
    ]},
    {"variants_of": "B3", "conditions": "with med4_human MED4, Q9NPJ6", "values": [
      {"variant": "W337R", "effect of a mutation on the interaction": "with no effect"}
    ]},
    {"variants_of": "B4", "conditions": "with ca094_human C1orf94, Q6P1W5", "values": [
      {"variant": "W337R", "effect of a mutation on the interaction": "disrupting interaction strength"}
    ]},
    {"variants_of": "B5", "conditions": "with spf45_human RBM17, Q96I25", "values": [
      {"variant": "W337R", "effect of a mutation on the interaction": "disrupting interaction strength"}
    ]},
    {"variants_of": "B6", "conditions": "with card9_human CARD9, Q9H257", "values": [
      {"variant": "W337R", "effect of a mutation on the interaction": "disrupting interaction strength"}
    ]}
  ]
}
